Data taken from patent US20230139700A1.

Assays:
[1] = target: human OX40 on cells (human) (UniProt P43489); assay: flow cytometry on human PBMCs activated with anti-CD3/CD28 beads, 50 nM antibody
[2] = target: human OX40 on cells (human) (UniProt P43489); assay: cell-based or functional assay

human OX40 on cells (human), sequence (P43489 29-277): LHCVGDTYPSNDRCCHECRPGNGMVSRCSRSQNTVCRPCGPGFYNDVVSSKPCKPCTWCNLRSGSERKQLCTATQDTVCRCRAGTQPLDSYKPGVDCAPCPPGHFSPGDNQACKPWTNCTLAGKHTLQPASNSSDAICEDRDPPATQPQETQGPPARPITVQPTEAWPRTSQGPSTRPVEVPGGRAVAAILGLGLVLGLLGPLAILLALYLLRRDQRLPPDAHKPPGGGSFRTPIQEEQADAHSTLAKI

Row | Substance | Binding percentage % [1] [%] | MFI (ten thousand) [1] | Luciferase IFM, Jurkat-hOX40-NFκB-2 cells [2]
1 | IgG1 (antibody) | 23 | 7000 | –
2 | OX40L (ligand) | – | – | 59000
